According to patent US7795390B2, “Biological substance nesfatin and its related substances and uses thereof” (Teijin Pharma Limited, priority 2005, dated 2010):
Positions count from the first letter of the chain named.

B1: recombinant nesfatin: recombinant matured mouse nesfatin (SEQ ID NO: 26) expressed in E. coli as GST fusion and cleaved with thrombin (protein)
chain: GSPIDVDKTKVHNTEPVENARIEPPDTGLYYDEYLKQVIEVLETDPHFREKLQKADIEEIRSGRLSQELDLVSHKVRTRLDELKRQEVGRLRMLIKAKLDALQDTGMNHHLLLKQFEHLNHQNPNTFESRDLDMLIKAATADLEQYDRTRHEEFKKYEMMKEHERREYLKTLSEEKRKEEESKFEEMKRKHEDHPKVNHPGSKDQLKEVWEETDGLDPNDFDPKTFFKLHDVNNDGFLDEQELEALFTRELEKVYNPQNAEDDMIEMEEERLRMREHVMSEIDNNKDRLVTLEEFLRATEKKEFLEPDSWETLDQQQLFTEDELKEYESIIAIQENELKKRAEELQKQKEDLQRQHDHLEAQKQEYHQAVQHLEQKKLQQGIAPSGPAGELKFEPHT
modifications: Chemically-synthesized nesfatin mutant protein
B2: Mut: nesfatin mutant in which Lys-Arg at amino acid numbers 84 and 85 is replaced with Ala-Ala (SEQ ID NO: 61) (protein)
chain: B1 chain with K84A, R85A
modifications: Chemically-synthesized KR-AA mutant polypeptide

Experiments:
Wistar rats [1] = experiment: Continuous intraventricular administration of nesfatin antisense RNA, food intake and body weight; assay type: in vivo, rat
Method: As the antisense RNA against nesfatin-1 gene, was used a morpholino RNA which sandwiches a translational start site, as follows.
The administration of nesfatin antisense RNA was carried out into the ventricle by an osmotic pump for 12 consecutive days using an osmotic pump. Among 8 week-old male Wistar rats (purchased from Nippon SLC), those individuals weighing 200-250 g were selected and used. The rats received intraperitoneal administration of 40 mg/kg body weight of pentobarbital sodium for anesthesia. After the hair was removed from the head, they were fixed in a brain stereotaxic apparatus (David Kopf Instruments, Model 962) and the scalp was incised and a 23G needle (guide cannula) was implanted so that the tip reaches the third ventricle (2.5 mm behind the bregma, 9.5 mm from the surface). One week after implanting the guide cannula, the animals were subjected to the experiment. The osmotic pump used was Alzet's Model 2002 that was primed in sterilized physiological saline from the day before use. Nesfatin antisense RNA (antisense administration group) dissolved in physiological saline that was filter-sterilized with 0.22 μm Millex GV filter, or missence RNA (ATcGTgCTCCACgTCATCTaCAcAG) sterilized in the same manner that dissolved in sterilized physiological saline (control group) were injected into the osmotic pump immediately before use. […] The measurement of the amount of food intake started from the day after the cannula and the osmotic pump were implanted, and the weight of the residual food was measured at 9 a.m. every day and, by determining the difference from the weight of the food on the previous day, the amount of food intake of the day (24 hours) was calculated. From day 6 after the start of administration, body weight was measured at the time of measuring the amount of food intake, and changes in body weight were also recorded.

nesfatin-1 = experiment: Western blotting of nesfatin-1 in hypothalamus after antisense RNA administration (densitometry); assay type: in vivo; conditions: rat hypothalamus, day 12; control group 14.3±1.2 AU
Method: On day 12 after the start of administration, the individuals in each group were sacrificed, and the hypothalamus in the brain was removed. Using the sample extracted, the expression of nesfatin was confirmed by Western blotting with nesfatin-1 Ab. Western blotting was carried out in a manner similar to those described in Working Examples 13 and 12. The concentration of bands stained in Western blotting was determined by densitometry.

Wistar rats [2] = experiment: Administration of recombinant nesfatin into the third ventricle, amount of food intake; assay type: in vivo, rat; conditions: for control activity of food intake: 1-3 hour and 3-6 hours
Method: Rats used were Wistar rats (purchased from Nippon SLC), and the animals were housed under a cycle of 12 hours of the light period from 6 a.m. to 6 p.m. and 12 hours of the dark period from 6 p.m. to 6 a.m. the next morning and fed a powder chew (Nippon Clea, CE-2), and kept at 22° C., and housing was continued under a similar condition during the experiment. For the experiment, among 8-9 week-old male Wistar rats, those individuals weighing 200-250 g were used. For administration, 5 μl of saline (control) or recombinant nesfatin prepared in Working Example 5 dissolved to 0.2 pmol, 0.6 pmol and 3.0 pmol in 5 μl of PBS was administered per individual (N=5 for each group). The rats received intraperitoneal administration of 40 mg/kg body weight of pentobarbital sodium for anesthesia. After the hair was removed from the head, they were fixed in a brain stereotaxic apparatus (David Kopf Instruments, Model 962) and the scalp was incised and a 23G needle (guide cannula) was implanted so as to reach the third ventricle (2.5 mm behind the bregma, 9.5 mm from the surface). One week after implanting the guide cannula, the animals were subjected to the experiment. After recovering from the surgery, a 29G cannula for injection was inserted into the guide cannula under no anesthesia, and 5 μl of PBS or the matured mouse nesfatin solution in PBS was administered at a rate of 1 μl/second. After fixing the cannula as it was for 2-3 minutes after the administration, the cannula was extracted, and the animals were returned to the individual cages. One, three, and six hours thereafter, the weight of the food was determined to record the amount of food intake, which was used as an index of feeding behavior. For the test of significant difference, analysis of variance was used.
The PCR product obtained was subjected to 1% agarose gel electrophoresis to excise an amplified band, which was purified with QIAEX-II kit (QIAGEN). The amplified DNA excised was cleaved with restriction enzymes SpeI and NotI, and ligated to pET41a(+) plasmid vector (Novagen) cleaved with restriction enzymes SpeI and NotI, using the Quick DNA ligase kit (New England Biolabs). From the cloned DNA, a clone, which has no errors in mutant portions introduced after analyzing DNA sequences in a similar manner to Working Example 5 and other nucleotide sequences, can be selected to obtain a vector for expressing the KR-AA mutant. The expression and purification were carried out in a similar manner to Working Example 5. The amino acid sequence of the KR-AA mutant obtained is set forth in SEQ ID NO: 61. Wt (normal nesfatin), which was prepared in Working Example 5, was used. 5 pmol each of the KR-AA mutant (Mut) peptide and the normal nesfatin (Wt) peptide were administered to the third ventricle of rats in a similar manner to Working Example 6. One, three, six and 12 hours thereafter, the weight of the food was determined to record the amount of food intake, which was used as an index of feeding behavior.
Also, in the same manner as in Working Example 6, after 5 pmol of nesfatin was administered into the rat ventricle, the amount of food intake was determined during 0-1 hour/1-3 hours/3-6 hours after the administration. The control group used was the one that only received physiological saline (0 pmol). For testing of significant difference, analysis of variance was used.

Wistar rats [3] = experiment: Administration of nesfatin-1, nesfatin-2, nesfatin-3, nesfatin-2/3 into the third ventricle, amount of food intake; assay type: in vivo, rat; conditions: given alone into the third ventricle (nesfatin-1 5 pmol; leptin 1 μg); vs saline control
Method: Samples used for intracerebral administration were PBS alone (vehicle group), or nesfatin-1, nesfatin-2, nesfatin-3 or nesfatin-2/3 prepared in Working Example 10 each dissolved in PBS, and 25 pmol was administered per individual into the third ventricle immediately before the dark period. Rats used were Wistar rats (purchased from Nippon SLC) and were housed as in Working Example 6, and among 8-9 week-old male Wistar rats, those individuals weighing 200-250 g were selected and used (N=5). The technique of intraventricular administration and the measurement of the amount of food intake in rats were carried out in a method similar to those in Working Example 6. In the measurement of the amount of food intake, the reduced amount of food at 1 hour after administration (0-1 hr) and 2 hours after administration (1-3 hrs) was determined as food intake.
In the same condition above, 1, 5 or 25 pmol of nesfatin-1 as a sample was administered per rat individual into the third ventricle immediately before the dark period. In this experiment, the amount of food intake was determined at 1 hour after administration (0-1 hr).
The experimental condition was similar to that in Working Example 12, and 5 pmol of nesfatin-1 was administered into the third ventricle of the rat brain immediately before the start of the dark period, the amount decreased of the food (the amount of food intake) during 1 hour immediately after administration (0-1 hr), during 2 hours from 1 hour after the administration (1-3 hr), during 3 hours from 3 hours after the administration (3-6 hr), and during 6 hours from 6 hours after the administration (6-12 hr) was measured as the amount of food intake. As the control group, the amount of food intake by individuals that received physiological saline alone was measured.
The experimental condition was similar to that in Working Example 12, and for a group that received 5 pmol of nesfatin-1 alone into the third ventricle of the rat brain immediately before the start of the dark period and a group that received 5 pmol of nesfatin-1 and 8 μg of anti-nesfatin-1 antibody (nesfatin-1 IgG), the amount of food intake for 1 hour after administration was measured and compared to that for the control group (physiological saline alone was administered). Also, for a group that received only leptin (Rat leptin: R & D Systems, 598-LP-01M) (1 μg) which is known to have an activity of suppressing food intake by intraventricular administration and a group that received leptin and anti-nesfatin-1 antibody, its effect on food intake was also studied.

[4] = 5 pmol intraventricular, 0-1 hour

Row | Molecule | amount of food intake during 24 hours (Wistar rats [1]; 40 μg, osmotic pump, third ventricle, 12 days, from day 1, vs missense RNA control) | body weight (Wistar rats [1]; day 6 after the start of administration, vs missense RNA control) | body weight (Wistar rats [1]; day 7 and after, P<0.05 vs missense RNA control) | expression of nesfatin-1, band intensity by densitometry (nesfatin-1) [AU] | amount of food intake (Wistar rats [2]; 4 pmol or 20 pmol into the brain ventricle, 0-1 hour, p<0.01 vs 0 pmol) | amount of food intake (Wistar rats [2]; 5 pmol intraventricular, 0-1 hour (p<0.01), 1-3 hours (p<0.05) and 3-6 hours (p<0.001)) | control activity of food intake (Wistar rats [2]; [4]) | amount of food intake (Wistar rats [2]; 5 pmol intraventricular, 6-12 hours) | amount of food intake (Wistar rats [2]; 20 pmol into the third ventricle, any of 0-1 hour/1-3 hours/3-6 hours, P<0.01 vs control) | amount of food intake (Wistar rats [2]; 1, 4 and 20 pmol into the third ventricle, 0-1, 1-3 and 3-6 hours, vs saline) | amount of food intake for 1 hour after administration (Wistar rats [3])
1 | 5-ATGGTCCTCCACCTCATCTTCAGAG-3 (all phosphorodiamidate morpholino (PMO)) [nesfatin antisense RNA] | an increase in the amount of food intake | no difference | significant increase in body weight | 8.5±0.7 | – | – | – | – | – | – | –
2 | B1 | – | – | – | – | significantly reduced | significant reduction in the amount of food intake | a significant control activity of food intake was observed | no difference | significant activity of suppressing food intake | reduction in the amount of food intake was noted in a dose dependent manner | significantly decreased
3 | B2 | – | – | – | – | – | – | no control activity of food intake was observed | – | – | – | –
